In patent publication US20190105401A1:

Target: Hsp60 (chaperonin 60) of human Caco-2 cells (human) (UniProt P10809)
Experiment: cell-based or functional assay

Sequence of Hsp60 (chaperonin 60) of human Caco-2 cells (human) (P10809 27-573): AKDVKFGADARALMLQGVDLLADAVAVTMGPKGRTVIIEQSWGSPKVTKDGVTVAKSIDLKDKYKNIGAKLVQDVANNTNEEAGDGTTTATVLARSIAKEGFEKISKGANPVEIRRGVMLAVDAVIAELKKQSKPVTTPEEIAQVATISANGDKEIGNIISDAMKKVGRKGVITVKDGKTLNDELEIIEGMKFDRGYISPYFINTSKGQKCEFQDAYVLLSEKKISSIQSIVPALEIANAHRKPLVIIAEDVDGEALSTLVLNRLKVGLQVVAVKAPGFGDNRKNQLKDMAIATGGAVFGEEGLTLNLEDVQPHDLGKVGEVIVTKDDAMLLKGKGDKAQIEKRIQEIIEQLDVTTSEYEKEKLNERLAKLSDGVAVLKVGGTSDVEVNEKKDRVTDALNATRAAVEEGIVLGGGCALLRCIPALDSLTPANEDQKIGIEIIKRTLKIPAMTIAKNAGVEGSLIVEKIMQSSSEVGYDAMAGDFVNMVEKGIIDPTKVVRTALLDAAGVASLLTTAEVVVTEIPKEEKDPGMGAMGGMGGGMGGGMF

Substance “Listeria adhesion protein (LAP) on L. monocytogenes F4244 (WT) bacteria (ligand)” has an IKK-β protein expression level, shRNA vector control Caco-2 cells infected with the WT strain, increase over uninfected of 54% and a p65 protein expression level, shRNA vector control Caco-2 cells infected with the WT strain, increase over uninfected of 62%.
